How the values were obtained:
[1] = target: T1, LILRB2 chimeric receptor on LILRB2 reporter cells (extracellular domain of LILRB2 fused with … (UniProt Q8N423 22-460)); assay: flow cytometry, LILRB2 reporter cells
T1 construct: extracellular domain;domain: transmembrane/intracellular domains; associates with DAP12; also called LILRB2-expressing reporter cells
Excerpt: FIGS. 1A-C. Screening specific monoclonal antibodies for LILRB2. […] Binding of monoclonal antibodies was screened using flow cytometer on LILRB2 reporter cells. Bound antibodies were detected with Allophycocyanin (APC)-labeled goat anti-human IgG secondary antibody. (FIG. 1B) Quantification of binding ability of monoclonal antibodies to LILRB2 reporter cells.
Screening specific monoclonal antibodies for LILRB2. The inventors employed a stable reporter cell system to detect the binding ability of selected monoclonal antibodies to LILRB2. In this chimeric receptor reporter system, the extracellular domain (ECD) of LILRB2 is fused with transmembrane/intracellular domains of PILRb that associates with the adaptor protein DAP12 containing an immunoreceptor tyrosine-based activation motif. 27 monoclonal antibodies were screened. The LILRB2 reporter cells were incubated with selected monoclonal antibody, then labeled with (APC) goat anti-human IgG secondary antibody. […] The inventors generated LILRBAs and LILRBs reporters stably transduced with each receptor's extracellular domain (ECD).

LILRB2-His antigen = target: T2, LILRB2-His antigen (UniProt Q8N423 22-460, limits assumed); assay: indirect ELISA, coated LILRB2-His
T2 construct: Coated on ELISA plates; also used for phage panning; also called LILRB2 antigen; not shown: His tag
Method: ELISA binding EC of LILRB2 antibodies. The ELISA binding EC₅₀ of these 24 antibodies were measured by indirect ELISA. […] After incubation, HRP-conjugated goat anti-human Fc secondary antibody was incubated with the plates. The TMB substrate was added for color development and measurement of absorbance at 450 nm.

[2] = target: T3, full extracellular domain (ECD) of LILRB2 fused to Fc fragment of mouse IgG2a (human; mouse, UniProt Q8N423 22-460); assay: ELISA, coated human LILRB2 ECD-mIgG2a Fc [panel A]
T3 construct: extracellular domain; also called B2-ECD; wildtype B2-ECD; not shown: Fc fragment of mouse IgG2a
Excerpt: FIGS. 19A-B. ELISA binding measurement of antibodies to human and non-human primate (cynomolgus monkey, cyno) LILRB2 recombinantly produced in HEK293 cells. (FIG. 19A) ELISA binding to human LILRB2. (FIG. 19B) ELISA binding to cyno-LILRB2. The fusion proteins of the extracellular domain (ECD) of human LILRB2 or NHP-LILRB2 with Fe of mouse IgG2a were used to coat ELISA plates and antibodies were titrated in different concentrations as indicated in the graph.

| Binder | % of cells anti-hIgG APC+ [1] [%] | EC50 (LILRB2-His antigen) [nM] | binding result [2] |
| --- | --- | --- | --- |
| B2-26 (antibody, V domains shown, also called B2-26_HC; B2-26_LC) VH: QVQLVQSGAEVKKPGASVKVSCKASGYTFTSYGISWVRQAPGQGLEWMGWISAYNGNTNYAQKLQGRVTMTTDTSTSTAYMELRSLRSDDTAVYYCARDRGGWFDPWGQGTLVIVSS VL: QSPSSLSASVGDRVTITCRASQSISNFVNWYQQKPGEVPKLLIYGASSLQSGVPSRFSGSGSGTDFTLTISSLQPEDFATYYCQQGYSVPLTFGGGTTVDIK | 0.12 | 1.02 | – |
| B2-14 (antibody, V domains shown, also called B2-14_HC; B2-14_LC) VH: QVQLVQSGAEVKKPGSSVKVSCKASGGTFSSYAISWVRQAPGQGLEWMGGIIPIFGTANYAQKFQGRVTITADESTSTAYMELSSLRSEDTAVYYCARASMVETYFDYWGQGTMVTVSS VL: QSVLTQPRSVSGSPGQSVTISCTGTSSDVGGYNYVSWYQQHPGKAPKLMISEVSKRPSGVPDRFSGSKSGNTASLTVSGLQAEDEADYYCSSYAGGYTPYVFGTGTKVTVL | 3.74 | 1.97 | – |
| B2-1 (antibody, V domains shown, also called B2-1_HC; B2-1_LC) VH: EVQLVQSGAEVKKPGSSVKVSCKASGGTFSSYAISWVRQAPGQGLEWMGGIIPIFGTANYAQKFQGRVTITADKSTSTAYMELSSLRSEDTAVYYCARGNQGDTAFDIWGQGTTVIVSS VL: QSALNQPASVSGSPGQSITISCTGTSSDVGGYNYVSWYQQHPGKAPKLMIYDVSNRPSGVSNRFSGSKSGNTASLTISGLQAEDEADYYCSSYTSSSTPYVFGTGTKVTVL | 1.69 | – | – |
| B2-13 (antibody, V domains shown, also called B2-13_HC; B2-13_LC) VH: QVQLVQSGAEVKKPGSSVKVSCKASGGTFSSYAISWVRQAPGQGLEWMGGIIPIFGTANYAQKFQGRVTITADESTSTAYMELSSLRSEDTAVYYCARSDYGDSYFDYWGQGTLVSVSS VL: QAVVTQPASVSGSPGQSVSISCTGTSSDVGGFNYVSWYQQHPGKAPKLMIYDVSNRPSGVSNRFSGSKSGNTASLTISGLQAEDEADYYCSSYTSSTAPYVFGTGTKVTVL | 1.23 | 5.15 | – |
| B2-27 (antibody, human IgG1, V domains shown, also called B2-27_HC; B2-27_LC) VH: QVQLVQSGAEVKKPGSSVKVSCKASGGTFSSYAISWVRQAPGQGLEWMGGIIPIFGTANYAQKFQGRVTITADESTSTAYMELSSLRSEDTAVYYCARESYSSSSFDYWGQGTTVSVSS VL: QPVLTQPASVSGSPGQSITISCTGTSSDVGGYNYVSWYQQHPGKAPKLMIYDVSNRPSGVSNRFSGSKSGNSASLTISGLQAEDEADYYCSSYTSSSTPYVFGTGTKVTVL | 1.1 | 379 | – |
| B2-23 (antibody, V domains shown, also called B2-23_HC; B2-23_LC) VH: QVQLVQSGAEVKKPGASVKVSCKASGYTFTHSYIHWVRQAPGQGLEWMGVINPVGGSTTYAQRFQGRVTMTRDTSTSTVYMELSSLRSEDTAVYYCARAGGDGYNPYFDYWGQGTLVTVSS VL: not shown | 0.47 | 2.44 | – |
| HCB2-4 (antibody, V domains shown, also called HCB2-4_HC; HCB2-4_LC) VH: QVELQESGPGLVKPSETLSLTCTVSGDAIKDKYWSWVRQPPGKGLEWIGYISNSGSTNYNPSLKSRVSLSVDTSKNQFSLKQTSVTAADTATYYCARGSGYTAFDIWGQGTMVTVSS VL: not shown | – | – | binds |
| B2-11 (antibody, V domains shown, also called B2-11_HC; B2-11_LC) VH: QVQLQQSGPGLVKPSQTLSLTCAISGDSVSSNSAAWNWIRQSPSRGLEWLGRTYYRSKWYNDYAVSVKSRITINPDTSKNQFSLQLNSVTPEDTAVYYCARQDESAADDAFDIWGQGTLVIVSS VL: QSVLTQPPSASGTPGQRVTISCSGSKSNVGNNFVHWYQQLPGTAPKLLLYSNLERSSGVPERFSGSKSGTSAYLAISGLRSDDEADYYCAAWDDSLPGWVFGGGTKLTVL | 0.28 | 3.79 | – |
| B2-3 (antibody, V domains shown, also called B2-3_HC; B2-3_LC) VH: QVQLVQSGAEVKKPGASVKVSCRTSGYTFSSYGISWVRQAPGQGLEWMGWISGNTGNTKYTPKLQGRVTMTTDTSTSTAYMELRSLRSDDTAVYYCARDRGIAAGRAFDIWGQGTMVTVSS VL: QPVLTQPPSASGTPGQRVTISCSGSSSNIGTNPVNWYQQVPGTGPKLLIYNNNQWPSGVPDRFSGSKSATSASLAIYGLQSGDEAHYYCSSWDDSLSAWVFGGGTKVTVL | 0.58 | 0.787 | – |
| B2-4 (antibody, V domains shown, also called B2-4_HC; B2-4_LC) VH: QVQLVQSGPTVRKPGASVRVSCKASGYPFTSNGMSWVRQAPGQGLEWMGWISTNSGNTNYAQKFQGRVTLTTDTSSTTTYLDLRSLTSDDTAIYYCARDVQYRMDVWGQGTTVTVSS VL: QSVLTQPPSASGTPGQRVTISCSGSRSNIGSNPVNWYQHLPGTAPKLLVYSNNRRPSGVPDRFSGSKSGTSASLSISGLQSEDEGVYYCAAWDDNVHGVFGGGTKVTVL | 0.7 | 1.76 | – |
| HCB2-1c (antibody, V domains shown) VH: EVQLVQSGAEVKKPGASVKVACKASGYTFTDYYIHWVRQAPGQGLEWMGIVNANGGDTNYAQQFQGRVTMTRDTSTSTVYLELTSLRSDDTAVYYCARDWYYYSSGSFPFDYWGQGTLVSVSS VL: AIQMTQSPSSLSASVGDRVSITCRASQSISSFLNWYQQRPGKAPELLIYGASSLQSGVPSRFSGSGSGTDFTLTISSLQPEDFATYYCQQSYSIPITFGQGTQLEIK | – | – | binds |
| HCB2-1d (antibody, V domains shown) VH: EVQLVQSGAEVKKPGASVKVACKASGYTFTDYYIHWVRQAPGQGLEWMGIVNANGGDTNYAQQFQGRVTMTRDTSTSTVYLELTSLRSDDTAVYYCARDWYYYSSGSFPFDYWGQGTLVSVSS VL: DVQMTQSPSSLSASVGDRVSITCKASQDVSIAVAWYQQKPGKAPKLLIYSASYRYTGVPDRFSGSGSGTDFTLTISSLQPEDFAVYYCQQHYITPLTFGAGTKLEIK | – | – | binds |
| HCB2-2 (antibody, V domains shown, also called HCB2-2_HC; HCB2-2_LC) VH: QVQLVQSGAEVKKPGASVKVSCKASGYIFNTYGISWVRQAPGQGLEWMGWTNVYNSNTDSGHKFQGRVTMTTDTSTDTAYMELRSLRSDDTAVYYCARDPGSAIFDMWGQGTMVTVSS VL: DVQMTQSPSSLSASVGDRVSITCRASQSISSFLNWYQQRPGKAPELLIYGASSLQSGVPSRFSGSGSGTDFTLTISSLQPEDFATYYCQQSYSIPITFGQGTRLEIK | – | – | binds |
| B2-2 (antibody, V domains shown, also called B2-2_HC; B2-2_LC) VH: QVQLVQSGAEVKKPGASVKVSCKASGYTFSDYGFSWVRQAPGQGLEWMGWISGYNGNTNYAQKFQGRVTMTIDASTSTAYMELRSLKSDDTAVYYCARLLLGYYGMDVWGQGTTVTVSS VL: DIVMTQSPSSLSASVGDRVTLTCRASQSIGNYLNWYQQKPGKAPNLLIYAASSLQSGVPSRFSGSGSGTDFTLTISSLQPEDFATYYCQQSFSIPPITFGQGTRLEIK | 0.14 | 1.6 | – |
| HCB2-13 (antibody, V domains shown, also called HCB2-13_HC; HCB2-13_LC) VH: QVQLVESGGGLVQPGGSLRLSCAASGFTLSSYAMSWVRQAPGEGLEWVSSINSGGSTYYAGSVRGRFTISRDNSKNTLYLQMNSLRAEDTAVYYCAKAKSYSSDLDHWGQGTTVTVSS VL: DVVMTQSPSSLSVSAGEKVTMSCKSSQSLLNSGNQKTYLAWYQQKPGQPPKLLIYGASTRESGVPDRFTGSGSGTDFTLTISSVQAEDLAVYYCQNDHSYPFTFGSGTKVEIKR | – | – | binds |
| B2-9 (antibody, human IgG1, V domains shown, also called B2-9_HC; B2-9_LC) VH: QVQLVQSGAEVKKPGASVKVSCKASGYTFTSYGISWVRQAPGQGLEWMGWISAYNGNTNYAQKLQGRVTMTTDTSTSTAYMELRSLRSDDTAVYYCARDGYGMDVWGQGTTVTVSS VL: QSPSSLSASVGDRVTITCRTSHTVNSYLNWYQQEPGKAPKLLIYAASNLQSGVPSRFSGSGSGTDFSLTIHNLQPEDFATYYCQQSYRTPLTFGQGTKVDIK | 0.09 | 0.608 | – |
| B2-22 (antibody, V domains shown, also called B2-22_HC; B2-22_LC) VH: QVQLVQSGAEVKKPGASVKVSCKASGYTFTSYGISWVRQAPGQGLEWMGWISAYNGNTNYAQKLQGRVTMTTDTSTSTAYMELRSLRSDDTAVYYCARVGSYGDYWGQGTLVTVSS VL: QSPSSLSASVGDRVTITCRASQGISNYLAWYQQKPGKVPKLLIYAASTLQSGVPSRFSGSGSGTDFTLTISSLQPEDVATYYCQKYNSAPLTFGGGTKLEIK | 0.19 | 0.348 | – |
| B2-30 (antibody, human IgG1, V domains shown, also called B2-30_HC; B2-30_LC) VH: QVQLVESGGGLVQPGGSLRLSCAASGFTFSSYDMHWVRQATGKGLEWVSAIGTAGDTYYPGSVKGRFTISRENAKNSLYLQMNSLRAGDTAVYYCARAKEYCSGGSCQDAFDIWGQGTMVSVSS VL: QSPSSLSASVGDRVTITCRASQSIRTYLNWYQQKPGKDPELLIYAATSLQSGVPSRFTGSGSGTDFTLTISSLQPEDFATYYCQQSYSAPVFTFGQGTKLEIK | 4.92 | 1.19 | – |

Reference: patent US20230068663A1 (University of Texas, published 2023)
